Laboratory results: the supplement of paper PMC9112550, “Optimization of the antimicrobial peptide Bac7 by deep mutational scanning” (BMC Biology, 2022)

system: Escherichia coli TOP10; assay: shrunken log2 fold change of peptide-encoding DNA abundance (4.5 h post-induction vs induction); higher = less antimicrobial activity (less host growth inhibition); details: time post-induction: 4.5 h; library: site-saturation at positions 5, 18, 19, 20
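Further: peptides expressed intracellularly from a pBAD plasmid library in pooled LB shake-flask culture, induced with 0.3% L-arabinose, DNA abundance read by NGS, three biological replicates, DESeq2 with apeglm shrinkage.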

| Sequence | shrunken log2 fold change |
| --- | --- |
| RRIRHRPPRLPRPRPRPPGFPRP | 0.011 |
| RRIRHRPPRLPRPRPRPPGKPRP | -0.155 |
| RRIRHRPPRLPRPRPRPPGSPRP | 0.0725 |
| RRIRHRPPRLPRPRPRPPGYPRP | 0.0632 |
| RRIRHRPPRLPRPRPRPPHDPRP | 0.047 |
| RRIRHRPPRLPRPRPRPPHFPRP | 0.297 |
| RRIRHRPPRLPRPRPRPPHHPRP | -0.0583 |
| RRIRHRPPRLPRPRPRPPHPPRP | 0.15 |
| RRIRHRPPRLPRPRPRPPKMPRP | -0.0472 |
| RRIRHRPPRLPRPRPRPPNCPRP | -0.19 |
| RRIRHRPPRLPRPRPRPPQLPRP | -0.215 |
| RRIRHRPPRLPRPRPRPPRCPRP | 0.526 |
| RRIRHRPPRLPRPRPRPPRHPRP | 0.231 |
| RRIRHRPPRLPRPRPRPPSPPRP | 0.169 |
| RRIRHRPPRLPRPRPRPPTSPRP | -0.128 |
| RRIRHRPPRLPRPRPRPPVRPRP | 0.16 |
| RRIRHRPPRLPRPRPRPPYEPRP | -0.486 |
| RRIRHRPPRLPRPRPRPQCGPRP | -0.333 |
| RRIRHRPPRLPRPRPRPQENPRP | -0.245 |
| RRIRHRPPRLPRPRPRPQEWPRP | -0.119 |
| RRIRHRPPRLPRPRPRPQFKPRP | -0.024 |
| RRIRHRPPRLPRPRPRPQFSPRP | -0.139 |
| RRIRHRPPRLPRPRPRPQGMPRP | -0.201 |
| RRIRHRPPRLPRPRPRPQGTPRP | -0.284 |
| RRIRHRPPRLPRPRPRPQHLPRP | -0.358 |

| Sequence | shrunken log2 fold change |
| --- | --- |
| RRIRHRPPRLPRPRPRPQIAPRP | -0.103 |
| RRIRHRPPRLPRPRPRPQKEPRP | -0.03 |
| RRIRHRPPRLPRPRPRPQKPPRP | -0.0624 |
| RRIRHRPPRLPRPRPRPQKWPRP | -0.875 |
| RRIRHRPPRLPRPRPRPQLLPRP | -0.197 |
| RRIRHRPPRLPRPRPRPQMSPRP | -0.0899 |
| RRIRHRPPRLPRPRPRPQNNPRP | -0.731 |
| RRIRHRPPRLPRPRPRPQPKPRP | 0.24 |
| RRIRHRPPRLPRPRPRPQPWPRP | 0.0549 |
| RRIRHRPPRLPRPRPRPQQSPRP | -0.0132 |
| RRIRHRPPRLPRPRPRPQRRPRP | 0.0777 |
| RRIRHRPPRLPRPRPRPQRYPRP | -0.0589 |
| RRIRHRPPRLPRPRPRPQSEPRP | -0.314 |
| RRIRHRPPRLPRPRPRPQTFPRP | -0.105 |
| RRIRHRPPRLPRPRPRPQYSPRP | -0.572 |
| RRIRHRPPRLPRPRPRPRAKPRP | 1.14 |
| RRIRHRPPRLPRPRPRPRATPRP | 0.554 |
| RRIRHRPPRLPRPRPRPRDAPRP | 0.14 |
| RRIRHRPPRLPRPRPRPREGPRP | 0.264 |
| RRIRHRPPRLPRPRPRPRFRPRP | -0.105 |
| RRIRHRPPRLPRPRPRPRGYPRP | -0.144 |
| RRIRHRPPRLPRPRPRPRHLPRP | 0.184 |
| RRIRHRPPRLPRPRPRPRHNPRP | -0.4 |
| RRIRHRPPRLPRPRPRPRHSPRP | -0.173 |
| RRIRHRPPRLPRPRPRPRHVPRP | -0.324 |

| Sequence | shrunken log2 fold change |
| --- | --- |
| RRIRHRPPRLPRPRPRPRIGPRP | 0.172 |
| RRIRHRPPRLPRPRPRPRISPRP | 0.0117 |
| RRIRHRPPRLPRPRPRPRLHPRP | 0.0986 |
| RRIRHRPPRLPRPRPRPRMIPRP | -8.79e-05 |
| RRIRHRPPRLPRPRPRPRPFPRP | -0.18 |
| RRIRHRPPRLPRPRPRPRPNPRP | 0.321 |
| RRIRHRPPRLPRPRPRPRPRPRP | 0.707 |
| RRIRHRPPRLPRPRPRPRQEPRP | 0.0426 |
| RRIRHRPPRLPRPRPRPRRDPRP | -0.02 |
| RRIRHRPPRLPRPRPRPRRKPRP | 0.0896 |
| RRIRHRPPRLPRPRPRPRRMPRP | 0.254 |
| RRIRHRPPRLPRPRPRPRSGPRP | -0.0415 |
| RRIRHRPPRLPRPRPRPRSKPRP | 3.34 |
| RRIRHRPPRLPRPRPRPRSRPRP | -0.132 |
| RRIRHRPPRLPRPRPRPRSSPRP | -0.00605 |
| RRIRHRPPRLPRPRPRPRTDPRP | 0.0682 |
| RRIRHRPPRLPRPRPRPRVQPRP | 0.054 |
| RRIRHRPPRLPRPRPRPRWVPRP | 0.31 |
| RRIRHRPPRLPRPRPRPSDMPRP | 2.66 |
| RRIRHRPPRLPRPRPRPSDYPRP | -0.343 |
| RRIRHRPPRLPRPRPRPSEHPRP | 0.00525 |
| RRIRHRPPRLPRPRPRPSFIPRP | -0.619 |
| RRIRHRPPRLPRPRPRPSGCPRP | -0.162 |
| RRIRHRPPRLPRPRPRPSGSPRP | -0.175 |
| RRIRHRPPRLPRPRPRPSGVPRP | -0.115 |
